Laboratory results: patent publication US20140087436
Numbering of substitutions follows the chain as printed.

What was measured:
Test in all cases: cell_activity
[1] = target: T1, CbbR A117V (Ralstonia eutropha) (UniProt P42722); conditions: beta-galactosidase, chemoheterotrophic; chemoautotrophic 6793
T1 sequence: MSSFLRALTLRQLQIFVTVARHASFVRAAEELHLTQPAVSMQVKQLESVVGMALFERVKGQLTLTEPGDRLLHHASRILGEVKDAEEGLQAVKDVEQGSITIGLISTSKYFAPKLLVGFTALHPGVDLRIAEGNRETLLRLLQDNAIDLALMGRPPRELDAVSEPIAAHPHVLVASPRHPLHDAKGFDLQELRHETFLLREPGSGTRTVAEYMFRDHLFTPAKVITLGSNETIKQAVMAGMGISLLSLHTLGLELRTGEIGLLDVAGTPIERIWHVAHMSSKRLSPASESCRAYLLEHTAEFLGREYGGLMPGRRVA

[2] = target: T2, CbbR A167V (Ralstonia eutropha) (UniProt P42722); conditions: beta-galactosidase, chemoheterotrophic; chemoautotrophic 7373
T2 sequence: T1 sequence with V117A, A167V

[3] = target: T3, CbbR D148N (Ralstonia eutropha) (UniProt P42722); conditions: beta-galactosidase, chemoheterotrophic; chemoautotrophic 6442
T3 sequence: T1 sequence with V117A, D148N

[4] = target: T4, CbbR G205D (Ralstonia eutropha) (UniProt P42722); conditions: beta-galactosidase, chemoheterotrophic; chemoautotrophic 2241
T4 sequence: T1 sequence with V117A, G205D

[5] = target: T5, CbbR G205D/G118D (Ralstonia eutropha) (UniProt P42722); conditions: beta-galactosidase, chemoheterotrophic; chemoautotrophic 3939
T5 sequence: T1 sequence with V117A, G118D, G205D

[6] = target: T6, CbbR G205D/R283H (Ralstonia eutropha) (UniProt P42722); conditions: beta-galactosidase, chemoheterotrophic; chemoautotrophic 4480
T6 sequence: T1 sequence with V117A, G205D, R283H

[7] = target: T7, CbbR P269S/T299I (Ralstonia eutropha) (UniProt P42722); conditions: beta-galactosidase, chemoheterotrophic; chemoautotrophic 3879
T7 sequence: T1 sequence with V117A, P269S, T299I

[8] = target: T8, CbbR T232A (Ralstonia eutropha) (UniProt P42722); conditions: beta-galactosidase, chemoheterotrophic; chemoautotrophic 5269
T8 sequence: T1 sequence with V117A, T232A

## cbb promoter in lacZ reporter strain
[1]
  activity: 254 nmol/min/mg
[2]
  activity: 768 nmol/min/mg
[3]
  activity: 343 nmol/min/mg
[4]
  activity: 488 nmol/min/mg
[5]
  activity: 1170 nmol/min/mg
[6]
  activity: 2310 nmol/min/mg
[7]
  activity: 617 nmol/min/mg
[8]
  activity: 212 nmol/min/mg
